# Results: patent US10143747B2, “Breast cancer therapeutics” (IMBA—INSTITUT FÜR MOLEKULARE BIOTECHNOLOGIE GMBH, priority 2010, dated 2018)
# B1: OPG: secreted decoy receptor of RANKL, used as RANKL inhibitor (1 μg/ml) (protein, UniProt O00300 22-401, looked up)
# Tumor necrosis factor …: ETFPPKYLHYDEETSHQLLCDKCPPGTYLKQHCTAKWKTVCAPCPDHYYTDSWHTSDECLYCSPVCKELQYVKQECNRTHNRVCECKEGRYLEIEFCLKHRSCPPGFGVVQAGTPERNTVCKRCPDGFFSNETSSKAPCRKHTNCSVFGLLLTQKGNATHDNICSGNSESTQKCGIDVTLCEEAFFRFAVPTKFTPNWLSVLVDNLPGTKVNAESVERIKRQHSSQEQTFQLLKLWKHQNKDQDIVKKIIQDIDLCENSVQRHIGHANLTFEQLRSLMESLPGKKVGAEDIEKTIKACKPSDQILKLLSLWRIKNGDQDTLKGLMHALKHSKTYHFPKTVTQSLKKTIRFLHSFTMYKLYQKLFLEMIGNQVQSVKISCL
# Tested on: human SKBR3 breast cancer cells
# Test: Soft-Agar Colony Formation Assay (anchorage-independent growth)
# Format: cell-based
# Details: OPG 1 μg/ml with RANKL 1 μg/ml, 18 days in culture
# Description: a, Western blotting for phosphorylated (P) IKKα, total IKKα, phosphorylated (P) p65 NFκB, total p65 NFκB, phosphorylated (P) IκBα, and total IκBα in isolated primary mouse mammary gland epithelial cells (MECs) in response to RANKL stimulation (1 μg/ml). β-actin is shown as loading control. b, Western blotting for IKKα, IKKβ, IKKγ, phosphorylated (P) p65 NFκB, total p65 NFκB, phosphorylated (P) IκBα, and total IκBα in pooled late stage mammary adenocarconimas (n=4 for each lane) that developed in control, RANK^Δmam and IKKΔ^Δmam females. β-actin is shown as loading control c, Expression of RANK, CyclinD1, and p21 mRNA in late stage mammary adenocacinomas that developed in control, RANK^Δmam, and IKKα^Δmam females. Expression was determined by qRT-PCR. Data are mean values+/−sem. n=4 per group. d, Soft-Agar Colony Formation Assay. Growth of human SKBR3 breast cancer cells in soft agar in response to stimulation with RANKL (1 μg/ml) or EGF (100 ng/ml). Anchorage-independent, macroscopic colonies formed after 18 days in culture with RANKL, which was prevented by the decoy receptor OPG (1 μg/ml). […] Apoptosis was detected by immunostaining for active Caspase 3. f, Apoptotic nuclei of epithelial cells (arrows) are shown for representative mammary gland sections. Magnifications×40. g, Quantification of mammary epithelial apoptosis. A minimum of 5000 nuclei was counted for each mouse. […]
molecule,measurement,value
B1,effect on RANKL-induced anchorage-independent macroscopic colonies,prevented
